# Results taken from patent publication EP1914304A1.
# System: Nc1nc2c(ncn2[C@@H]2O[C@H](COP(=O)(O)O)[C@@H](O)[C@H]2O)c(=O)[nH]1
# Assay: Michaelis-Menten kinetics of guanylate kinase activity
# Type: biochemical, murine
# Conditions: other: Table X
# Description: . […] Table X Kinetic Analysis of Fusion Proteins
# Chain of murine guanylate kinase (gmk), wild-type (Mus musculus) (chain, as listed by the source): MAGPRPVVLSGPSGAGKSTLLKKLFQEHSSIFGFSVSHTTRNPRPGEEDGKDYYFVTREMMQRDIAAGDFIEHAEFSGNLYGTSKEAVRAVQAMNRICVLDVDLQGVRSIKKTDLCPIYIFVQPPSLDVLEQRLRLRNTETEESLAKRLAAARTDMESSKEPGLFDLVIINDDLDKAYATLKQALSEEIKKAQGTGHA
substance,measurement,value
"murine guanylate kinase (gmk), wild-type (Mus musculus)",Km,25 µM
